# Data as given in US20210015858A1 (I MAB BIOPHARMA US, published 2021).
# Numbering of substitutions follows the chain as printed.
# B1: 143B6 (antibody, human IgG1, V domains shown)
# VH: EVQLVESGGGLVMPGGSLKLSCAASGFTFSGFVMSWVRQTPEKRLEWVATINDAGTYTYYSDNLKGRFTISRDNAKNNLYLQMSHLKSEDAGMYYCARDGGLRAWFPYWGPGTLVTVSA
# VL: DIQLTQSPASLSASVGETVTITCRASENIYSYLAWYQLKQGKSPQLLVFNTKTLAEGVPSRFSGSGSGTQFSLRIDSLQLEDFGSFYCQHHIGSPRTFGGGTTLEIR
# notes: Mouse hybridoma clone
# B2: 222H4 (antibody, human IgG1, V domains shown)
# VH: EVQLQQSGPELVKPGASVKISCKTSGYTFSDYTLHWVKQSHGKNLEWIGGFNPNNGGTNYNQKFKVKASLTIDKSSNTVYMELRSLSSEDSAVYYCARNWAFDYWGQGTTLTVSS
# VL: DIVMTQSHKIMSTSLGDRVNITCKASQHVSTAVAWYQQRPGQSPRLLIYSASYRHTGVPDRFTGSGSGTDITFTISSVQTEDLAVYYCQQYYTTPWTFGGGTKLEIK
# notes: Mouse hybridoma clone
# B3: 101E1HM-1 (antibody, V domains shown)
# VH: QVQLQESGPGLVKPSQTLSLTCTVSGYSITDDYAWNWIRQPPGKGLEWMGYISYSGHTKYNPSLKSRVTISRDTSKNQFSLKLSSVTAADTAVYYCARKYYGGWFPRWGQGTLVTVSS
# VL: DIQMTQSPSSLSASVGDRVTITCKASQDVFTAVAWYQQKPGKAPKLLIYSASYRPTGVPSRFSGSGSGTDFTFTISSLQPEDFATYYCQQSYSTPWTFGQGTRLEIK
# B4: 101E1HM-2 (antibody, V domains shown)
# VH: B3 VH with H57N, K59M, R107I
# VL: B3 VL with P55H
# B5: 101E1HM-3 (antibody, V domains shown)
# VH: B3 VH with H57D, R107V
# VL: B3 VL with Y53N, P55N, S91Q
# B6: 101E1HM-4 (antibody, V domains shown)
# VH: B3 VH with K59R, G103S, R107D
# VL: B3 VL with P55M
# B7: 101E1HM-5 (antibody, V domains shown)
# VH: B3 VH with H57I, K59R, R107Q
# VL: B3 VL with P55D
# B8: 350D10 (antibody, human IgG1, V domains shown)
# VH: EVKLVESGGALVQPGGSLKLSCAASGFTFSDYYMYWVRQTPEKRLEWVASITKGGGSTYYPDTLKGRFTISRDNAKNTLYLQMSRLKSEDTDMYYCARQSSYDFVMDYWGQGTSVTVSS
# VL: DIVMTQSHKFMSTSVGDRVTITCKASQDVDTAVAWYQQKPGQSPKLLIYWASARHTGVPDRFTGSGSGTDFTLTISNVQSEDLADYFCQQYSNYPLTFGVGTKLELK
# notes: Mouse hybridoma clone; also called 350D10-chimeric
# B9: 116H8 (antibody, human IgG1, V domains shown)
# VH: EFQLQQSGPELVKPGASVKISCRASGYSFTAYSMNWVQQTNGKSLEWIGVINPKFGTINYNQKFKGKATLTVDQSSSAAYIQLNSLTSEDSAVYFCARNGNFAWYFDVWGTGTTVTVSS
# VL: DIQMTQSPASLSASVGETVTITCRASENIFSYLAWYQQKQGKSPQLLVYNAKTLPEGVPSRFSGSGSGTQFSLKINSLQSEDFGSYYCQHHYGVPWTFGGGTKLEIK
# notes: Mouse hybridoma clone
# B10: 167F7 (antibody, human IgG1, V domains shown)
# VH: B9 VH with G66D, Q74H, I81M
# VL: B9 VL with N28S, V48A, K52E, P55A, S85I, Y92F
# notes: Mouse hybridoma clone
# B11: 131A12 (antibody, human IgG1, V domains shown)
# VH: B9 VH with I58T, K65R, G66D, Q74H, I81M
# VL: B9 VL with V48A, K52E, P55A, N76S, Y92F, K103N
# notes: Mouse hybridoma clone
# B12: 221F11 (antibody, human IgG1, V domains shown)
# VH: EIQLQQTGPELVKPGASVNISCKASGYSFTDYIMIWVKQSHGKSLEWIGNIHPYFGNSHYNLKFKGKATLTVDKSSTTAYMQLNSLTSEDSAVYYCARRGITSAHFDYWGQGTTLTVSS
# VL: DIVLTQSPASLAVSLGQRATISCRASKSVSTSGYSYMHWYQQKPGQPPKLLIYRASNLESGVPARFSGSGSGTDFTLNIHPVEEEDAATYYCQHSGDLPWTFGGGTKLEIK
# notes: Mouse hybridoma clone
# B13: 90D9 (antibody, V domains shown)
# VH: EVQLQQSGPELVKPGASVKISCKTSGYTFTENTMHWVKQSHGKSLEWIGGINPNQGGNRNNQKFKGKATLTVDKSSSTAYMELRSLTSEDSAVYYCARSGLRDYAMDYWGQGTSVTVSS
# VL: DIVMTQSHKFMSTSVGDRVSITCKASQHVSTAVVWYQQKPGQSPKLLIYSPSYRYTGVPDRFTGSGSGTDFTFTISSVQAEDLAVYYCQQHYSTPWTFGGGTKLEIK
# notes: Mouse hybridoma clone; also called 90D9-chimeric
# B14: 101E1 (antibody, human IgG1, V domains shown)
# VH: DVQLQESGPGLVKPSQSLSLTCTVTGYSITSDYAWNWIRQFPGNKLEWMGYISYSGNTRYNPSLKSRISITRDTSKNQFFLQFNSVTTEDTATYYCSRKYYGSWFPYWGQGTLVTVSA
# VL: B13 VL with H28D, S30F, V34A, P51A, K103R
# notes: Mouse hybridoma clone; also called 101E1-chimeric
# Tests used:
# His-tagged cyno-TIGIT = target: T1, His-tagged cyno-TIGIT (cyno, UniProt A0A7N9I9V4 89-209); test: ELISA
# T1 construct: also called cyno TIGIT protein; not shown: His tag
# T1 sequence (A0A7N9I9V4 entry or part of it): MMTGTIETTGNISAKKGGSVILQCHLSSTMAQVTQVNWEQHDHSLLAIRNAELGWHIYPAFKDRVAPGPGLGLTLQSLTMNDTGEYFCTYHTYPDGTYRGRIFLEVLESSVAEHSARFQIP
# [1] = target: T2, recombinant His-tagged human TIGIT-ECD protein (human, UniProt Q495A1 22-141); test: SPR (Biacore T200), antibody captured, His-tagged TIGIT-ECD injected
# T2 construct: extracellular domain; The ELISA text only says His-tagged human TIGIT; also called His-tagged TIGIT; human TIGIT protein; not shown: His tag
# T2 sequence (looked up): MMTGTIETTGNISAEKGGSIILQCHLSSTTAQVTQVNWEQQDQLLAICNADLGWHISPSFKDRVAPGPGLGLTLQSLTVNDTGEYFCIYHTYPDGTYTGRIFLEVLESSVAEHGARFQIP
# Protocol: The binding of the antibodies to recombinant His-tagged human TIGIT-ECD protein was examined by Biacore T200 using a capture method. The anti-TIGIT antibodies were captured using anti-human Fc antibody or Protein A which were coated on chip. The serial concentrations of his-tagged human TIGIT-ECD protein (0-8 nM) were injected over capture antibodies at the flow rate of 30 μl/min. The dissociation phases were 600 s or 1200 s.
# [2] = target: T2, recombinant His-tagged human TIGIT-ECD …; test: SPR affinity ranking (Biacore T200)
# [3] = target: T2, recombinant His-tagged human TIGIT-ECD …; test: SPR affinity ranking (Biacore 8K or T200)
# [4] = target: T3, human TIGIT expressed on cell surface (human, UniProt Q495A1 22-244); test: cell-based or functional assay
# T3 sequence (looked up): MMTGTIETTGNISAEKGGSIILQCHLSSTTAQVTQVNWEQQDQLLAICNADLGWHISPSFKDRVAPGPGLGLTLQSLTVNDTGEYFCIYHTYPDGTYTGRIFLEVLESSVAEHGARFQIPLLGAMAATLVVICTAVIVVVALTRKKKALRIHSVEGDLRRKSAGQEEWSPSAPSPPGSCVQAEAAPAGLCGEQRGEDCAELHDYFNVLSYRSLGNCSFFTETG
# [5] = target: T2, recombinant His-tagged human TIGIT-ECD …; test: SPR (Biacore T200), antibody captured, His-tagged TIGIT-ECD injected; remark: listed apart in the source
# Protocol: The anti-TIGIT antibodies were captured using anti-human Fc antibody or Protein A which were coated on the chip. Serial concentrations of His-tagged human TIGIT-ECD protein (0-8 nM) were injected over capture antibodies at the flow rate of 30 μl/min. The dissociation phases were 600 s or 1200 s.
binder,measurement,setting,value
B1,binding result,His-tagged cyno-TIGIT,no binding
B2,Kd,[1],0.242 nM
same,koff,[1],0.000453 s⁻¹
same,kon,[1],1.87e+06 M⁻¹ s⁻¹
B3,Kd,[2],2.15 nM
same,koff,[2],0.00107 s⁻¹
same,kon,[2],496000 M⁻¹ s⁻¹
B4,Kd,[2],1.48 nM
same,koff,[2],0.00191 s⁻¹
same,kon,[2],1.29e+06 M⁻¹ s⁻¹
B5,Kd,[2],0.554 nM
same,koff,[2],0.000717 s⁻¹
same,kon,[2],1.29e+06 M⁻¹ s⁻¹
B6,Kd,[2],3.08 nM
same,koff,[2],0.00439 s⁻¹
same,kon,[2],1.43e+06 M⁻¹ s⁻¹
B7,Kd,[2],1.29 nM
same,koff,[2],0.00209 s⁻¹
same,kon,[2],1.63e+06 M⁻¹ s⁻¹
B8,Kd,[3],0.0716 nM
same,koff,[3],0.000189 s⁻¹
same,kon,[3],2.64e+06 M⁻¹ s⁻¹
same,"maximum ADCC activity (LDH release, NK92-CD16a effector cells on Jurkat-TIGIT target cells)",[4],50%
same,Kd,[1],0.0822 nM
same,koff,[1],0.000154 s⁻¹
same,kon,[1],1.87e+06 M⁻¹ s⁻¹
same,Kd,[5],0.0822 nM
same,koff,[5],0.000154 s⁻¹
same,kon,[5],1.87e+06 M⁻¹ s⁻¹
B9,binding result,His-tagged cyno-TIGIT,no binding
B10,Kd,[1],0.024 nM
same,koff,[1],0.000107 s⁻¹
same,kon,[1],4.45e+06 M⁻¹ s⁻¹
B11,binding result,His-tagged cyno-TIGIT,no binding
B12,binding result,His-tagged cyno-TIGIT,no binding
B13,Kd,[3],0.296 nM
same,koff,[3],3.25e-05 s⁻¹
same,kon,[3],110000 M⁻¹ s⁻¹
same,"maximum ADCC activity (LDH release, NK92-CD16a effector cells on Jurkat-TIGIT target cells)",[4],50%
same,Kd,[1],0.252 nM
same,koff,[1],0.000156 s⁻¹
same,kon,[1],619000 M⁻¹ s⁻¹
same,Kd,[5],0.374 nM
same,koff,[5],0.000167 s⁻¹
same,kon,[5],446000 M⁻¹ s⁻¹
B14,apparent Kd (pooled screen),[3],0.487 nM
same,apparent koff (pooled screen),[3],0.00114 s⁻¹
same,apparent kon (pooled screen),[3],2.34e+06 M⁻¹ s⁻¹
same,"maximum ADCC activity (LDH release, NK92-CD16a effector cells on Jurkat-TIGIT target cells)",[4],50%
same,apparent Kd (pooled screen),[1],0.362 nM
same,apparent koff (pooled screen),[1],0.00105 s⁻¹
same,apparent kon (pooled screen),[1],2.9e+06 M⁻¹ s⁻¹
same,binding result,His-tagged cyno-TIGIT,no binding
same,apparent Kd (pooled screen),[5],0.362 nM
same,apparent koff (pooled screen),[5],0.00105 s⁻¹
same,apparent kon (pooled screen),[5],2.9e+06 M⁻¹ s⁻¹
